The values that follow come from US20040180342, “Multimers of S. solfataricus single-stranded DNA-binding protein and methods of use thereof” (REGENTS OF THE UNIVERSITY OF CALIFORNIA, published 2004).

Series [1] addresses T1, SsoSSB (S. solfataricus SSB, SSO2364) (Sulfolobus solfataricus, UniProt Q97W73 SEQ:1-148).
T1 sequence: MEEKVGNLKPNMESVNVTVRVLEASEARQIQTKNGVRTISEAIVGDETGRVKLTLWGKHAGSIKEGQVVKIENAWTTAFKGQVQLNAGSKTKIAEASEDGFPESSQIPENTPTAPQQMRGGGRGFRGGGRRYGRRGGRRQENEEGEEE
Put plainly: competition. The note with it: linear pUC19 at 100-fold molar (nucleotide) excess did not alter shift of 63-mer; 75 C.

In series [2] the target is T1, SsoSSB (S. solfataricus SSB, SSO2364). Description: EMSA; 10 uM nucleotides, constant mobility reached at 2 uM protein; saturation about 1 SSB per 5 nt; non-cooperative; 75 C, 30 mM Tris OAc pH 7.5, 10 mM MgOAc2, 5 mM. The note with it: tags: untagged, expressed from pET21a in E. coli, heat treated at 80 C; chain copies: 4 (tetramer main form in solution; dimer and monomer also present); label: 5'-32P (T4 polynucleotide kinase end label). How it is done:
To determine the occluded binding site size of the protein and to evaluate the activity of the SsoSSB protein, we performed acrylamide gel mobility-shift assays with a radioactively labeled single-stranded oligonucleotide that was 63 nucleotides in length (FIG. 5). When a fixed quantity of radiolabeled oligonucleotide was incubated with increasing quantities of protein, a band of reduced mobility was observed. The apparent mobility further decreased upon addition of more protein, finally achieving a constant mobility after the addition of 2 μM protein. The absence of discrete species implied rapid equilibration between bound and free forms of the complexes, and consistent with this possibility, more discrete species were visualized when electrophoresis was performed more rapidly (at high voltage). […] The M. jannaschii RPA protein has a site size of 15 to 20 nucleotides (Kelly, T. J. et al., Proc Natl Acad Sci USA 95:14634-14639 (1998)) whereas the site size of E. coli SSB protein, depending on solution conditions, varies from 8 to 16 nucleotides per monomer. The apparent site size of SsoSSB protein is similar to the 7 nucleotide site size observed for phage T4 SSB protein, gp32. […] The observed band-retardation pattern is likely the result of a combination of this non-cooperative binding and rapid equilibration of protein-DNA complexes during electrophoresis.

Regarding linearized pUC19, in series [1], the fold lower affinity than ssDNA (competition) (fold lower affinity than ssDNA) is > 100.

B1: 63-mer oligonucleotide (ssDNA)
DNA: ACAGCACCAATGAAATCTATTAAGCTCCTCATCGTCCGCAAAAATATCGTCACCTCAAAAGGA
B1: the binding result in series [2] is given as “binds”.
